Here are results for two molecules from PMC5582868, “BLADE-ON-PETIOLE proteins act in an E3 ubiquitin ligase complex to regulate PHYTOCHROME INTERACTING FACTOR 4 abundance” (eLife, 2017).

For assay [1], the target named is T1, His-GST-PIF4 (Arabidopsis thaliana (Mouse-ear cress), UniProt Q8W2F3).
T1 chain: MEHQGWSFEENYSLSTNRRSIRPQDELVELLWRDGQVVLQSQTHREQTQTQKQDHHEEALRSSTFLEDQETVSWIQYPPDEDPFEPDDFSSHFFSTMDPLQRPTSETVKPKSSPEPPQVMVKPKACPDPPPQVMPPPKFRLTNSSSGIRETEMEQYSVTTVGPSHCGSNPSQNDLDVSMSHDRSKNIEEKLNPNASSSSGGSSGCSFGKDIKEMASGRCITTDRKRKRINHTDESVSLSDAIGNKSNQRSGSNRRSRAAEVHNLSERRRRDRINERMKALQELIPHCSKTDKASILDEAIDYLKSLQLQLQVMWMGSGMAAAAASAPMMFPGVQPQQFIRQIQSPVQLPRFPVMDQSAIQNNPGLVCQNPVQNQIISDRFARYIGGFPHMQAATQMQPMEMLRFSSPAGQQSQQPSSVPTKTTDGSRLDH
As to the kind of experiment: GST pulldown.

The target in assay [2] is T2, His-MBP-BOP2 (Arabidopsis thaliana, UniProt Q9ZVC2 1-491).
T2 construct: BLADE-ON-PETIOLE 2 (BOP2), Arabidopsis thaliana; source: Escherichia coli BL21, purified (Ni-NTA Agarose)
T2 sequence (looked up): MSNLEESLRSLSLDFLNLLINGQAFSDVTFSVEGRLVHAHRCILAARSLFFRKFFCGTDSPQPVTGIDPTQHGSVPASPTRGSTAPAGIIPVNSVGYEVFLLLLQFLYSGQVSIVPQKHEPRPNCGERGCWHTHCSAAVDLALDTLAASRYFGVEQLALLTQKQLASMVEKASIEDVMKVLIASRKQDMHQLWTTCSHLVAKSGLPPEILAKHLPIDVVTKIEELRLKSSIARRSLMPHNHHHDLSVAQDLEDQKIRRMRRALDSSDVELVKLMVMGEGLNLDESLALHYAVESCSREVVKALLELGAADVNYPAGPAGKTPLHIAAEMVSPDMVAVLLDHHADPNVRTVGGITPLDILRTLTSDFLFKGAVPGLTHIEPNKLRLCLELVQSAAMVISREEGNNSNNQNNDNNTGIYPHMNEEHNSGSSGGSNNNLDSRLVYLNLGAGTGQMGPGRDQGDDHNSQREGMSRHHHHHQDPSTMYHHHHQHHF
The assay can be described thus: pull-down; 1 µg GST-PIF4 on Glutathione Sepharose 4B beads; 1 µg MBP or MBP-BOP2 added in 300 µl binding buffer (50 mM Tris-Cl pH 7.6, 100 mM NaCl, 1 mM EDTA, 1% Triton X-100, 0.5 mM DTT, 5% glycerol), 4°C, 2 hr; blot with anti-MBP. Particulars: both partners purified.

B1: His-MBP-BOP2 (protein)
chain: MSNLEESLRSLSLDFLNLLINGQAFSDVTFSVEGRLVHAHRCILAARSLFFRKFFCGTDSPQPVTGIDPTQHGSVPASPTRGSTAPAGIIPVNSVGYEVFLLLLQFLYSGQVSIVPQKHEPRPNCGERGCWHTHCSAAVDLALDTLAASRYFGVEQLALLTQKQLASMVEKASIEDVMKVLIASRKQDMHQLWTTCSHLVAKSGLPPEILAKHLPIDVVTKIEELRLKSSIARRSLMPHNHHHDLSVAQDLEDQKIRRMRRALDSSDVELVKLMVMGEGLNLDESLALHYAVESCSREVVKALLELGAADVNYPAGPAGKTPLHIAAEMVSPDMVAVLLDHHADPNVRTVGGITPLDILRTLTSDFLFKGAVPGLTHIEPNKLRLCLELVQSAAMVISREEGNNSNNQNNDNNTGIYPHMNEEHNSGSSGGSNNNLDSRLVYLNLGAGTGQMGPGRDQGDDHNSQREGMSRHHHHHQDPSTMYHHHHQHHF
On to B1, for which the binding result in assay [1] is reported as “binds”.

B2: His-GST-PIF4 (natural protein, Arabidopsis thaliana, UniProt Q8W2F3 1-430, looked up)
chain: MEHQGWSFEENYSLSTNRRSIRPQDELVELLWRDGQVVLQSQTHREQTQTQKQDHHEEALRSSTFLEDQETVSWIQYPPDEDPFEPDDFSSHFFSTMDPLQRPTSETVKPKSSPEPPQVMVKPKACPDPPPQVMPPPKFRLTNSSSGIRETEMEQYSVTTVGPSHCGSNPSQNDLDVSMSHDRSKNIEEKLNPNASSSSGGSSGCSFGKDIKEMASGRCITTDRKRKRINHTDESVSLSDAIGNKSNQRSGSNRRSRAAEVHNLSERRRRDRINERMKALQELIPHCSKTDKASILDEAIDYLKSLQLQLQVMWMGSGMAAAAASAPMMFPGVQPQQFIRQIQSPVQLPRFPVMDQSAIQNNPGLVCQNPVQNQIISDRFARYIGGFPHMQAATQMQPMEMLRFSSPAGQQSQQPSSVPTKTTDGSRLDH
notes: also called glutathione S-transferase (GST) tagged PIF4; source: Escherichia coli BL21, purified (Ni-NTA Agarose)
B2: the binding result in assay [2] is reported as “binds”.
